Source: US20160237160A1 (Bayer, published 2016)

Legend:
Assay in all cases: ELISA, Fc fusion protein coated at 1 µg/ml, TPP-2090 at 75 nM, Amplex Red;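 further: binding reported as ELISA signal intensity in Rfu against a panel of TNF receptor superfamily members presented as Fc fusion proteins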
[1] = target: T1, CD27 (TNFRSF7) Fc fusion protein (Human, UniProt P26842 20-191)
T1 construct: extracellular domain; bought
Source text: (§1) Shown is the result of an ELISA: Y is “ELISA signal intensity [Rfu]”; X are “TNF receptor superfamily proteins tested (Fc-fusion proteins)”: 1 is “TWEAKR”; 2 is “TWEAKR”; 3 is “Apo-3”; 4 is “Trail-R1”; 5 is “Trail-R2”; 6 is “CD385”; 7 is “CD95”; 8 is “Rank”; 9 is “TNF-R1”; 10 is “TNF-R2”; 11 is “BAFF-R”; 12 is “DcR3”; 13 is “BCMA”; 14 is “TACI”; 15 is “OX40”; 16 is “CD30”; 17 is “CD27”; 18 is “CD40”; 19 is “Osteoprotegerin”; 20 is “EDAR”; 21 is “GITR”; 22 is “HVEM”; 23 is “NGF R”; 24 is “Trail R3”; 25 is “Lymphotioxin B R”; 26 is “Trail R4”; 27 is “EDA2R”; 28 is “TROY”; 29 is “RELT”; 30 is “4-1BB”.
(§2) To collect dose-response data a serial 3fold dilution of biotinylated IgG starting with a concentration of 2 μM was used as soluble binding partner. Detection was done with anti-hIgG1-HRP and Amplex Red.

[2] = target: T2, TNF-R2 (TNFRSF1B) Fc fusion protein (Human, UniProt P20333 23-257)
T2 construct: extracellular domain; bought
T2 sequence (looked up): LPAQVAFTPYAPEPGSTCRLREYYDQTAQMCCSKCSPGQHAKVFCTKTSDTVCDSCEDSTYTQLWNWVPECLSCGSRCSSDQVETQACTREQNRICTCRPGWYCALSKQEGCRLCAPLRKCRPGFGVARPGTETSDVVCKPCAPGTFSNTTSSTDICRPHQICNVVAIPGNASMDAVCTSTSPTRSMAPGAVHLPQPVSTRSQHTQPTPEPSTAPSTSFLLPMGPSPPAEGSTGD
Source text: as §1, §2

[3] = target: T3, TNF-R1 (TNFRSF1A) Fc fusion protein (Human, UniProt P19438 30-211)
T3 construct: extracellular domain; bought
T3 sequence (looked up): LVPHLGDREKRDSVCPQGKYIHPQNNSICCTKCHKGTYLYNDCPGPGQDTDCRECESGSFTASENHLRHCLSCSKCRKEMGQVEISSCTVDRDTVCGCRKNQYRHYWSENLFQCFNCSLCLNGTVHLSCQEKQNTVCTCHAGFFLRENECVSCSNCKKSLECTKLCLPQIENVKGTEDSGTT
Source text: as §1, §2

[4] = target: T4, Trail R 4 (TNFRSF10D) Fc fusion protein (Human, UniProt Q9UBN6 56-211)
T4 construct: extracellular domain; bought
T4 sequence (looked up): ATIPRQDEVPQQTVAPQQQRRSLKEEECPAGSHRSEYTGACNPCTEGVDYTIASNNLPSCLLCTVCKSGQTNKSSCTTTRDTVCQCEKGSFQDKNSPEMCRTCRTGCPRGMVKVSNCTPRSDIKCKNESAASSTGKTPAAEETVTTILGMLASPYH
Source text: as §1, §2

[5] = target: T5, CD30 (TNFRSF8) Fc fusion protein (Human, UniProt P28908 19-385)
T5 construct: extracellular domain; bought
T5 sequence (looked up): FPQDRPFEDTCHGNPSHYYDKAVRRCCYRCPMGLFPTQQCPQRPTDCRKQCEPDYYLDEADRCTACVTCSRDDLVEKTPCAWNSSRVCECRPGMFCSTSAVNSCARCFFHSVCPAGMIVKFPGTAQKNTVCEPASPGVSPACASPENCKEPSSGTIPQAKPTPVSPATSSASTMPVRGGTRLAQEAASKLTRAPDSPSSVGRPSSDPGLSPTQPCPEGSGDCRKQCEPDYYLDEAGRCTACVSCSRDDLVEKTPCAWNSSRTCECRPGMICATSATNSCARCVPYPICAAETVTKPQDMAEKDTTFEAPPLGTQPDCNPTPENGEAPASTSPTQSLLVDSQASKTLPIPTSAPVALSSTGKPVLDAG
Source text: as §1, §2

[6] = target: T6, OX40 (TNFRSF4) Fc fusion protein (Human, UniProt P43489 29-214)
T6 construct: extracellular domain; bought
T6 sequence (looked up): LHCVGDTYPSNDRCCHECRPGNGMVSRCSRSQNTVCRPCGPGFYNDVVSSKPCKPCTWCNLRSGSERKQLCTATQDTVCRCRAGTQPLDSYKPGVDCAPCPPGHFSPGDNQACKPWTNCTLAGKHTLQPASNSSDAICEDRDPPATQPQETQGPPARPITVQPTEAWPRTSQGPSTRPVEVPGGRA
Source text: as §1, §2

[7] = target: T7, TACI (TNFRSF13B) Fc fusion protein (Human, UniProt O14836 1-165)
T7 construct: extracellular domain; bought
T7 sequence (looked up): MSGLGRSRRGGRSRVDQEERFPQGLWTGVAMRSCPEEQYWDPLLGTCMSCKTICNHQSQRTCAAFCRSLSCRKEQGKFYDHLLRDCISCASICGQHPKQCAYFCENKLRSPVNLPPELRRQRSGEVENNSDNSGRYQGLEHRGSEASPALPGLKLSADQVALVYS
Source text: as §1, §2

[8] = target: T8, Trail-R2 (TNFRSF10B) Fc fusion protein (Human, UniProt O14763 56-210)
T8 construct: extracellular domain; bought
Source text: as §1, §2

[9] = target: T9, BAFF-R (TNFRSF13C) Fc fusion protein (Human, UniProt Q96RJ3 1-78)
T9 construct: extracellular domain; bought
Source text: as §1, §2

[10] = target: T10, EDA2R (TNFRSF27) Fc fusion protein (Human, UniProt Q9HAV5 1-138)
T10 construct: extracellular domain; bought
T10 sequence (looked up): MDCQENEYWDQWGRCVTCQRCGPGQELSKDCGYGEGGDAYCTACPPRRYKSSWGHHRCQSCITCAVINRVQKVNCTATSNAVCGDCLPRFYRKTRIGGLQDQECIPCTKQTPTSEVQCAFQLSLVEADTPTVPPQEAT
Source text: as §1, §2

[11] = target: T11, CD-385 (TNFRSF21) Fc fusion protein (Human, UniProt O75509 42-349)
T11 construct: extracellular domain; bought
T11 sequence (looked up): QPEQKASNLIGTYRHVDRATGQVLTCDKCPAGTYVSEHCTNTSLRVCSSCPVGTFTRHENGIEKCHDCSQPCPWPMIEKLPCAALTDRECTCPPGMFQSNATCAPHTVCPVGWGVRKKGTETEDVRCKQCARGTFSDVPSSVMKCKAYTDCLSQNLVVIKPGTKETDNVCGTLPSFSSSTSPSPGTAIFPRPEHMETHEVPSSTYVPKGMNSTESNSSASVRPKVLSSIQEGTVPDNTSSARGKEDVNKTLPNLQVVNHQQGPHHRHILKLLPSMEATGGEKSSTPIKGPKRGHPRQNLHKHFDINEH
Source text: as §1, §2

T1 sequence (P26842 20-191): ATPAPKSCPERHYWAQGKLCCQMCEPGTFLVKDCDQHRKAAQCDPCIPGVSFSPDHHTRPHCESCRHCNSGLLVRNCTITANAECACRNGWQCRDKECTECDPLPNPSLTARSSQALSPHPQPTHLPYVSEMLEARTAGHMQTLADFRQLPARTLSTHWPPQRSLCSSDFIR

binding result [1]: no binding (tested: 75 nM)
binding result [2]: no binding (tested: 75 nM)
binding result [3]: no binding (tested: 75 nM)
binding result [4]: no binding (tested: 75 nM)
binding result [5]: no binding (tested: 75 nM)
binding result [6]: no binding (tested: 75 nM)
binding result [7]: no binding (tested: 75 nM)
binding result [8]: no binding (tested: 75 nM)
binding result [9]: no binding (tested: 75 nM)
binding result [10]: no binding (tested: 75 nM)
binding result [11]: no binding (tested: 75 nM)
B1: TPP-2090 (antibody, human IgG1, kappa, V domains shown)
VH: EVQLLESGGGLVQPGGSLRLSCAASGFTFSPYPMIWVRQAPGKGLEWVSYISPSGGSTHYADSVKGRFTISRDNSKNTLYLQMNSLRAEDTAVYYCARGGDTYFDYFDYWGQGTLVTVSS
VL: DIQMTQSPSSLSASVGDRVTITCRASQSISGYLNWYQQKPGKAPKLLIYQASSLQSGVPSRFSGSGSGTDFTLTISSLQPEDFATYYCQQSYTSPFITFGQGTKVEIKR
notes: Human IgG1
